Among the data in patent US7163686 are IC50 values, retold here.

Test [1] addresses biotinylated-purified IgG Fc fragments (Jackson Labs). Put plainly: inhibition ELISA: protein in solution incubated with biotinylated IgG Fc fragments, wells coated with SpA, streptavidin-AP. Background: ELISA stands for enzyme-linked immunosorbent assay.
In test [2] the target is representative VHIII-encoded IgG2a Moab (moderate affinity clan VHIII, murine 7183-encoded antibody). Put plainly: inhibition ELISA: SpA form in solution preincubated with the murine 7183-encoded IgG2a, then wells coated with tetmDomD′; human Fc fragments added.

As to “Staphylococcal protein A (SpA), native, recombinant rSpA (Repligen) (from UniProt P38507 37-437)”, the half-maximal inhibitory concentration (IC50) (as a rule, the midpoint of a concentration-inhibition curve) in test [1] stood at 0.4 µM; in test [2] it was 2 µM.
Substance “TetmDomD′ (four-domain concatamer of mutant SpA domain D′, L17D/I31A) (from UniProt P38507 93-153; P38507 93-153; P38507 93-153; P38507 93-153)” gave an IC50 in test [2] of 5000 µM.
On to “SpA domain D (wildtype), monomer (from UniProt P38507 93-153)”, for which the IC50 was determined as 200 µM in test [1] and 10000 µM in test [2].
